Assay results as given in the domain aggregation screens of Martell et al. (2025).

Experiment: soluble fraction after stress (log2 fold change); higher = more stays soluble; pooled small domains, quantitative proteomics
Details: stress: 75 degC
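Also: 20 min heating vs room temperature control held 20 min.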

Sequence	soluble fraction (log2)
HMSAQDLIVRRDSARIEARVTEISPTEIRYKRASNPDGPTYVLPLGDVRSIRYANGEEEVFAPA	-0.223
HMSAQQTFLRDAMRRLNMTRDSFAERIGVRRRALDTWLLPEDSSEYRTMPSIVEKFVGEILGREA	-0.65
HMSARKVTVALHTRDHADRLRRLLKHEGVSADLVAARLSHKLTDHPIEVRVNEDDIPAVLRIIENIEIF	-1.61
HMSASLPAAVEDPDLPYRVGAKLRHARWGEGLLVGIQREGSDVIATVHFASVGRKRLSLQYAHLEE	-2.17
HMSATIMVLRASEDIPVGTEIKDNHLTTVEVGSYGLPEGAINDKDTVLGKVAQTNIIKGDYFFPQKLGG	0.339
HMSDAQIKASINDLWFKYNLETFAKLNLNVNQGRVLVTGIVQNPEHRLEAIRLVWTVDGVQQVINEIQVAE	-2.33
HMSDDIPVHYRLDVNDAARALKLLTDNGFSAETAESGLNVYMTRLQSAEAARLLVENNIAVYGLTAV	-0.297
HMSDDLIILGYSMLNNALKAFHIDPDSIKKKHWDKLAQDYHLKNKNQILTDIALGKRVNIMVAHQLTTIMD	-0.738
HMSDDSYLVALAEAYKNATSWDIRRQVLSIMTGVSSYKEISRYIPGLTQYRLSISNLHRLQYGRAAPVP	0.0264
HMSDEAGKVLQLLRENGGYLPYNDRSDPEDIYAFFSMSKKTFKMTAGNLYKQKKIIFTNTGIKLTE	-3.51
HMSDEVNTDKAFRAIDSTLNRNVKGIAPRDHTLLRNTMITYFKSNDYIDYDTMIQSTLENYKPTELEQDKM	0.0497
HMSDGHLIKVLEVLDGGEAFLGRTANGGTARFSLGQLADIRRGSVVFVSEDRWEVVPDSAWPEI	-1.1
HMSDGIPDLRNLNFLSPQEGDYLNESDRVFGVTINGDGQAYPLRIVNAHEMVNDTLGGEPISLM	0.124
HMSDHKNANFTKVVKVAQELLQDEDDKAGITPTLIEEKISAVLAMNRRWAEGLDRAAVADELIRRFSIW	-0.847
HMSDIATLVPGPTDAELAASALRGLDAALDADTPVRLSLGEPGGEVEVPRSVLAALARVLDSFAHGEGVTL	-0.0408
HMSDIISEIESQVMFKLATYEITNATEKMIEALINSEINDRRTLGFPIPNEQGRIFLVRSIQNKLAV	-2.77
HMSDIIVQGNRRLDTDLIITDSQIREIGTDEKSLSLAVKNLYKTGYFENVQIFKDNSVVFINVKENQ	-0.618
HMSDIQKGTQINLVNEPLYVSSKTSIVSTYKTGTYYTWGFEANNRIAITNKLENIGVKGQVTGWINKP	-1.73
HMSDKFNALWIILNKLDKKEKVTARSLMEDLEVSERSVYRYITTLQVAGFPVDYDRAVNSYVFSDGYTLK	-4.11
HMSDKLTLPVQINGVFRYTIEINPSMQKDEIIDLVKNEERTAKYKQDKEIKNVIVVPGKIVNIII	-0.339
HMSDLPLLEHARQNLSDDEFRILELTTIYGYRRVEVAKMLGEPISTINWKYNKLIKKVKTFYGEVYN	-0.998
HMSDLVATKEQVVEAYKYGLGLGLDNSTLKMLLFDIRGEDVADQDKISDGMTVSEIEIWKEGMRTIAEEYL	-0.5
HMSDMIGQNIRRLRTEKQMTQKALADKLFVTAQAVSRWENGEVEPSLSTVTEIARIFNVSADEILGI	-0.228
HMSDPDPAEQALLRQFMTRYAAYRRRGQHPAGAFRTASLEVFGQEPSGDLRDVIVDLESGLV	-0.234
HMSDPELNDNEKKIYDIIFNKKSMDLTELKNLSELSNKQWDKGIKSLSKQDFVKVIKTEEALIVELV	-0.509
HMSDPSAQADALFNEGKTAEAFNVLLRLIEDSPEDQREDYRVRLLDLFRIAGNTPEVKAARRRLSALLM	-0.237

Sequence	soluble fraction (log2)
HMSDRFVRIVMNDGTVKLGQMISEDADFIRLKTNNLGELNIPKYLVLDMMDLTRSEYVRLSISNAG	-0.282
HMSDSAFAEMRRELEALRNSNAEYERALSNFFPEAEDKALAAEAFYQNREYDELVAEREEANVIDGLKR	-0.198
HMSDSISLTLNGDLRRFRAHATIADLVRDIGLDPVKVAVERNLEIVSRSTLEDVVLADGDRLEIVHFV	-2.23
HMSDSLVLTGVAYVDGKPVVTLFDKVKKESLVVTDQPNLKGWTLVEATQSSDIKRATAKVNIGGEPVSIRY	-0.0165
HMSDTFENILQRLIKATGRKNASEMANALGLSPQSVYSAKTKGKIPPAWIFAAAERFNASADWIYFGY	-1.5
HMSDTSAIEKIIDEVLSDESSQKAINDIKNGNEKVYGFLVGQVMKKSQGKANPGLVQKMLREKIAK	0.116
HMSDYKSALQEAVQTNKQSIEYVLIKESGPAHNKTFTFEVRIDNISYGVGTAKSKKEAEQIAAKDALDKLV	-0.0877
HMSDYVLLYSGLNTSDTTFLAYSFQEKGIRYKMPNPDEIEVRVQDVDQARRIAAGAQLGGQVS	-0.536
HMSEEGTIPDVSGQDEASAQKALENAGFTNIKSEAVYSEEEQGTVIDTNPTAGTKVSKDTEITMQVSKGSE	0.248
HMSEEKLVFSIPDDIETMRIDKAIALETHLSRAQIAELFKENKILLNSKNSKRSEKVKPGDKISLEFIPKI	-0.0442
HMSEEVKSQPISILDLSTRASNGLKNEGIETIGELVKYSEDELLGLDKFGQNSLKEIKKKLEEIGLTLKEH	0.00703
HMSEFLTIVRAVYSGLSRRKVAAMHKVSRNTVSLYLRQARDQGWLTLEDLEKLDDLTVSQGVS	-2.08
HMSEFVIPLAKYNKALYTQVSLGMRFRMLFETEDSGVRRYMGTITGIGDLDPIRWKNSHWRNLQV	0.191
HMSEHLTLVVSDEDAGHRVDQFLVSRLAHMTRSQIQKLIKDGQVTIDTKLVRASTTVHTDNIVTIEFPPAV	-1.21
HMSEKLTLEAANEAAGMRIDKWLAMQLPELSRSRIEALISGGGVVVNGKNPSKSLKLKGGEQIELEIPE	-0.0607
HMSELLIVGSEQDNTRLDRFLADQYEEYTRSFLQKLIDQGNVSINGISVKKSGIKLKENDEIAVTLPEPQ	0.646
HMSELPLTQKVAIVMVALGEEASGEVMKHLSDYEIEEITQAIAGLKNISVELMDQILEEYEQHLIAG	-0.515
HMSELTKEIGKRIHDFRKSRGLNQEELARLIYKSKATLSKYEKGEIAIDLDTLKQLALALHVRMEQLLPPT	-1.5
HMSENDTILAKFVSVMGNKNLELVIFPDIAYLKGQVSNPEDKTKAETVAQSLLGGKPLVSLIEFE	-0.332
HMSENIQLQKEQLYQLIAQLPEQRQKIFRLHKIDNYSYQEISDFTGLSRKTIANHIYLAHQFILKKVKK	-3.76
HMSENKIMEIVQDLAREKSVILISHRLANVTAADKILYMEQGKIAESGTHEQLMAQNKAYAALFNKQQEL	-0.0206
HMSENLESEFFGIVVITQTLLQKELRDKPMTVELIRKTVEDVMSKHYSDSSVDKAKVEEELIRRFSTW	-1.32
HMSENMSQDLAQWYRLQQALHPNLDAPELWATDLTSQQRTVRDQLIQQWAQEKRDSLWSEISGD	-0.0639
HMSEPFDMAVPLTSGGRRLDQVLAELLPQHSRNRLQGWIRDGLLTLDGVTVTEPKRKLAGGEQLALLLP	-0.169
HMSEPTLESLRAEGAHHYDPARFHYLEVLARRMPGQHAAVQQVLASRLREAVAAYAGRRSLI	-0.157
HMSEQSEALRTGLDQLPINQRTALTLFHLHELNQSEVAKIMNISVGAVESLLFRGRQKMKQLLTSD	-1.39

Sequence	soluble fraction (log2)
HMSERIITFGEATREAMLEEMRADERVFVYGEDIAKQGGIFGQFAGMKDEFPERVLDTPISETALVGAG	0.157
HMSERVVVPDLTGKDLVAAQSELREISLAGREEGPGDKVRRQFPVAGVKVPKDTVVILYTED	0.0278
HMSESAGKALDILFYLARVEDEVSLARLSKETGMNKATALRYLAVLESWGVVEKRPSGWSLGLSLFELGSK	-2.05
HMSESGTFRAEAADAGRRLDVALAERLRLSRAAAQRLIAAGLVLVEGSPARKRQILHAGETVAWRAAPP	-1.03
HMSESLLTAAGFKTIAATTPEQKRHLEWLHPDQVTAVQLTGQHYYVYPDVAKSQLFVGTPKEYQAYLALRT	-0.16
HMSESLRDLVLSLIPEDGSTIGNRALITRLREDLPDLTDEDYHEVRDQLIAEGVLAKGRGQGGSVARANG	0.311
HMSETIVFGQQKAINTLSSEAGLSSAELNNYLKKRYQRPLFQLTVSEGADLIQGFQDGTLTKASITQYVSQ	-0.0878
HMSETQDQTTIEIEDMITVGTLAERLSIPVSTLIGELMKNGVMATVNEKIDFDTAQIIVGELKLPIELSKK	0.0487
HMSEYEYALHEFGITKKQSQRIFDRLSIADLEERINAIQTTLKQRSDIDNPAAYAWTVLNAE	-0.0603
HMSEYLDIHMAMEKLNRKEQLFVHLRFYEGLTQSEIAQRLFTSQVQISRLEKSVLEKMRQILSK	-2.2
HMSEYTRGELVSSLEAGEVAAVSIRPNRETPTGEAQIVLSDGQHRVLYVTDVREIEELVSSYGLNPQVEK	0.196
HMSFDNIKVGYISETAGYVKGISLADANEYAKLNPDTEFIFIDGDEKVRFLTINEVNGLTPKNLLRSDP	0.229
HMSFGFFELKSSDTDKLFAYLNNNEHFGNIKEENGLVTAFLTSELDAQTLNKLLFDNGIIASHLVKRK	-0.928
HMSFMPDPSIHDAITYTVRSGDYLGKISTTFGVKVSDLQKWNSIKSNIIYPGQKLTVWVSSNKRESLQ	-1.71
HMSFPLKRGSKGNRVTQLQNALVKKFGASILPKYGVDGMFGKEVEAALVRAKLPTSINESTYNSFV	0.125
HMSFVAYEEEKAIGMVRLIGDGGMSFYIKDFAVLPGHQGKGVGQMLLMELQQYLLEHKPADWAVSLE	-0.359
HMSGAKLLAPVTGTLLRYTVAEGTKVSEGQTVIMLESMKMELEINAHKAGVIHFTAAAGAQVAEGDSLAEI	-0.945
HMSGDKKLQMNLILEFAQQNESFRTKDIEELLQIRSSRARKLISDLVTEGRLEALGENRNRRYQLI	-1.05
HMSGDYRALYSSLPPERASSVVDALNVAGIPYRIQDSTGAIMVPAEQIYDARIRLAGQGLGK	0.104
HMSGEPKNERQIEVPDVTKKSIREANNILTSEGLRLRIEGTGLAVSQKPAAGTMVEPDTIITVTFQAP	0.441
HMSGHEVMVQRITAIIAELYQYGFVSRKKMMDEFNISERTLYRDLNRLGDRIVPDGDGIYRLAPAYA	-1.55
HMSGHIPGIKIKGVIFFDKGSSSNHIIATTENNSNLKLRVGETVQGAVLKSIHPNHVIFFHHNQLIEVGIG	-4.39
HMSGKGEFDQLLRSGEYVQAFQRANANGNVTLRRQQLLNLARHQAASGVGSGAIESLSTIQRI	0.00597
HMSGKMTVPNVVGKTETEAKSALSAKGFTNVRTETVDSTEAAGTVVKQSLDADSVQDPKTEIVLSVSNG	0.946
